Measurements reported in patent publication US20230272119A1 (MARENGO THERAPEUTICS, published 2023).

Key:
[1] = molecular target: T1, α-HER3 heavy-LgBiT (SEQ ID NO: 143); assay: NanoBiT, HC-LgBiT:LC-SmBiT:competing LC 1:1:1; competing kappa LC m36 (SEQ ID NO: 127)
T1 construct: VH-CH1-linker-LgBiT; germline VH3-9*01

[2] = molecular target: T1, α-HER3 heavy-LgBiT (SEQ ID NO: 143); assay: NanoBiT, HC-LgBiT:LC-SmBiT:competing LC 1:1:1; competing kappa LC m33 (SEQ ID NO: 124)
[3] = molecular target: T1, α-HER3 heavy-LgBiT (SEQ ID NO: 143); assay: NanoBiT, HC-LgBiT:LC-SmBiT:competing LC 1:1:1; competing kappa LC m24 (SEQ ID NO: 115)
[4] = molecular target: T1, α-HER3 heavy-LgBiT (SEQ ID NO: 143); assay: NanoBiT, HC-LgBiT:LC-SmBiT:competing LC 1:1:1; competing kappa LC m15 (SEQ ID NO: 106)
[5] = molecular target: T1, α-HER3 heavy-LgBiT (SEQ ID NO: 143); assay: NanoBiT, HC-LgBiT:LC-SmBiT:competing LC 1:1:1; competing kappa LC m21 (SEQ ID NO: 112)
[6] = molecular target: T1, α-HER3 heavy-LgBiT (SEQ ID NO: 143); assay: NanoBiT, HC-LgBiT:LC-SmBiT:competing LC 1:1:1; competing kappa LC m27 (SEQ ID NO: 118)
[7] = molecular target: T1, α-HER3 heavy-LgBiT (SEQ ID NO: 143); assay: NanoBiT, HC-LgBiT:LC-SmBiT:competing LC 1:1:1; competing kappa LC m12 (SEQ ID NO: 103)
[8] = molecular target: T1, α-HER3 heavy-LgBiT (SEQ ID NO: 143); assay: NanoBiT, HC-LgBiT:LC-SmBiT:competing LC 1:1:1; competing kappa LC m6 (SEQ ID NO: 97)
[9] = molecular target: T1, α-HER3 heavy-LgBiT (SEQ ID NO: 143); assay: NanoBiT, HC-LgBiT:LC-SmBiT:competing LC 1:1:1; competing kappa LC m42 (SEQ ID NO: 133)
[10] = molecular target: T2, α-CTLA4 heavy-hCHIg_Knob_Cys (SEQ ID NO: 168) (Homo sapiens (Human), UniProt P0DOX5 1-449 = IgG part); assay: intact MS of papain-cleaved multispecific molecule 3; Fab 'Kappa heavy chain/lambda light chain' not observed
T2 construct: full heavy chain, human Fc knob; Fab analysed after papain cleavage in the MS assay; germline VH3-30*01; also called HCP2 of multispecific molecules 3, 4, 5, 9

[11] = molecular target: T3, α-IL12β heavy-hCHIg_Hole_Cys (SEQ ID NO: 170) (Homo sapiens (Human), UniProt P0DOX5 1-449 = IgG part); assay: intact MS of papain-cleaved multispecific molecule 3; Fab of this pairing observed (observed mass, Da)
T3 construct: full heavy chain, human Fc hole; Fab analysed after papain cleavage in the MS assay; germline VH3-33*01; also called HCP1 of multispecific molecules 3 and 9

| binding result [10] | binding result [11] | Binder | Percent pairing [1] [%] | Percent pairing [2] [%] | Percent pairing [3] [%] | Percent pairing [4] [%] | Percent pairing [5] [%] | Percent pairing [6] [%] | Percent pairing [7] [%] | Percent pairing [8] [%] | Percent pairing [9] [%] |
| --- | --- | --- | --- | --- | --- | --- | --- | --- | --- | --- | --- |
|  |  | α-HER3 light-SmBiT (SEQ ID NO: 144) (other, lambda light chain-linker-SmBiT; germline Vl3-19*01) light: SYELTQDPAVSVALGQTVRITCQGDSLRSYYASWYQQKPGQAPVLVIYGKNNRPSGIPDRFSGSTSGNSASLTITGAQAEDEADYYCNSRDSPGNQWVFGGGTKVTVLGGQPKANPTVTLFPPSSEELQANKATLVCLISDFYPGAVTVAWKADGSPVKAGVETTKPSKQSNNKYAASSYLSLTPEQWKSHRSYSCQVTHEGSTVEKTVAPTECSGSSGGGGSGGGGSSGGVTGYRLFEEIL | 100 | 100 | 86 | 93 | 100 | 90 | 80 | 100 | 100 |
| no binding | binds | α-IL12β light (SEQ ID NO: 163) (other, unmodified lambda light chain; germline Vl1-44*01; also called LLCP of multispecific molecule 3) light: QSVLTQPPSVSGAPGQRVTISCSGSRSNIGSNTVKWYQQLPGTAPKLLIYYNDQRPSGVPDRFSGSKSGTSASLAITGLQAEDEADYYCQSYDRYTHPALLFGTGTKVTVLGQPKANPTVTLFPPSSEELQANKATLVCLISDFYPGAVTVAWKADGSPVKAGVETTKPSKQSNNKYAASSYLSLTPEQWKSHRSYSCQVTHEGSTVEKTVAPTECS |  |  |  |  |  |  |  |  |  |
